Measured values published in paper PMC7541710.

Molecular target: MR1-restricted antigen synthesized by S. Typhimurium and highly abundant in that microbe peptide on MR1 (human)
Test: T cell clone or line
[1] = chains alpha TRAV1-2 TRAJ33 CDR3:beta TRBV3-1 TRBJ2-2 CDR3

B1: D0033A2 (peptide)
chain 1: CAVTDSNYQLI
chain 2: CASSQAETELNTGELF
geometric MFI [1]: 2480

B2: D0033A10 (peptide)
chain 1: CAVTDSNYQLI
chain 2: CASSSGLEVTGELF
geometric MFI [1]: 2130

B3: D0033A6 (peptide)
chain 1: CAVVDSNYQLI
chain 2: CASSHSSGTGGNEQF
geometric MFI (chains alpha TRAV1-2 TRAJ33 CDR3:beta TRBV4-2 TRBJ2-1 CDR3): 2620

B4: 403A9 (peptide)
chain 1: CAVVDSNYQLI
chain 2: CSARDGGEAYNEQF
geometric MFI (chains alpha TRAV1-2 TRAJ33 CDR3:beta TRBV20-1 TRBJ2-1 CDR3): 1600

B5: 450A9 (peptide)
chain 1: CAVRDSNYQLI
chain 2: CSAREVEGTYEQY
geometric MFI (chains alpha TRAV1-2 TRAJ33 CDR3:beta TRBV20-1 TRBJ2-7 CDR3): 2030

B6: 571F3-2 (peptide)
chain 1: CAVRDSNYQLI
chain 2: CASSEASGGTDTQY
geometric MFI (chains alpha TRAV1-2 TRAJ33 CDR3:beta TRBV6-4 TRBJ2-3 CDR3): 2760

B7: 450B9 (peptide)
chain 1: CAVMDSNYQLI
chain 2: CASTPSGEFSEAF
geometric MFI (chains alpha TRAV1-2 TRAJ33 CDR3:beta TRBV6-1 TRBJ1-1 CDR3): 2520

B8: 427D8-2 (peptide)
chain 1: CAVMDSNYQLI
chain 2: CASSLLRQGTEKLF
geometric MFI (chains alpha TRAV1-2 TRAJ33 CDR3:beta TRBV5-1 TRBJ1-4 CDR3): 3440
